Assay results as given in patent publication US20260070976A1 (Alector, published 2026).

What was measured:
[1] = target: recombinant human PILRA (human, UniProt Q9UKJ1 20-197); assay: SPR, Biacore T200, antibody captured by anti-Fab
Procedure: (§1) A subset of these antibodies was further evaluated using the Biacore T200 (Cytiva). Anti-PILRA antibodies were diluted to 10 μg/mL and captured using an anti-Fab (Cytiva, #28958325) surface on a CM4 chip, that was prepared by amine coupling according to the manufacturer's protocol. Human PILRA and cynomolgus PILRB were diluted in running buffer to 130 nM, and diluted 4-fold serially, twice, to 8 nM. Human PILRB was similarly diluted from 260 nM to 16 nM. These analytes were injected and allowed 2 minutes of association, followed by dissociation for 5 minutes.
(§2) Data were analyzed using Biacore evaluation software to generate kinetic constants. The equilibrium dissociation constants (KD) were calculated from the fitted association and dissociation rate constants (k-on and k-off) for each of the anti-PILRA antibodies. These Kn values are indicated with asterisks in Table 8 below.

[2] = target: recombinant human PILRB (human, UniProt Q9UKJ0 20-191); assay: SPR, Biacore T200, antibody captured by anti-Fab
Procedure: as §1, §2

[3] = target: T1, cynomolgus PILRA on HEK293F cells (cynomolgus monkey, UniProt A0A7N9CRU1 20-292); assay: flow cytometry; HEK293F cells overexpressing cynomolgus PILRA, goat anti-human IgG Alexa Fluor 647
[4] = target: T2, human PILRA G78 on HEK293F cells (human, UniProt Q9UKJ1 20-303); assay: hA Kd of Table 9; method not stated (Example 8: HEK293F overexpressing cells, FACS)
T2 construct: also called hA; G78 OE

[5] = target: T1, cynomolgus PILRA on HEK293F cells; assay: cA Kd of Table 9; method not stated (Example 8: HEK293F overexpressing cells, FACS)
[6] = target: T3, cell surface PILRA on human monocytes (human, UniProt Q9UKJ1 20-303); assay: cell-based or functional assay
[7] = target: T2, human PILRA G78 on HEK293F cells; assay: flow cytometry; HEK293F cells overexpressing human PILRA, goat anti-human IgG Alexa Fluor 647
Procedure: (§3) Conditioned media samples containing the tested anti-PILRA antibodies were assessed for binding to HEK293F cells overexpressing human PILRA (hA), human PILRB (hB), and cynomolgus PILRA (cA) by FACS. The conditioned media containing the tested antibodies were incubated with the cells for 30 min at 4° C., washed twice, and then detected with goat anti-human IgG secondary antibody (Alexa Fluor 647) at 1:1000 dilution. The cells were analyzed by flow cytometry on FACS Canto II, and for all cell lines, the reported MFI values were calculated for each conditioned media. These antibodies were evaluated for nonspecific binding using a baculovirus particle (BVP) assay (Jain T., Sun T., Durand S., Hall A., Houston N. R., Nett J. H., Sharkey B., Bobrowicz B., Caffry L, Yu Y., et al. Biophysical properties of the clinical-stage antibody landscape. Proc. Natl. Acad. Sci. USA. 2017; 114:944-949. Doi: 10.1073/pnas.1616408114.). The BVP scores are listed in Table 9, and the higher the score the more nonspecific binding that occurred.

[8] = target: T2, human PILRA G78 on HEK293F cells; assay: FACS on HEK293F cells, binding on human PILRA (hA) over human PILRB (hB)
Procedure: as §3

[9] = target: T3, cell surface PILRA on human monocytes; assay: flow cytometry; Alexa Fluor 647-conjugated antibody on human CD14+ monocytes, Fc receptors blocked, 30 min on ice
Procedure: Anti-human PILRA antibodies X0 (PA-29) and its affinity matured variants were tested for their abilities to bind cell surface PILRA on human and cynomolgus monocytes. CD14+ monocytes were isolated from healthy human donors using a RosetteSep Human Monocyte Enrichment Cocktail kit (StemCell). Cynomolgus white blood cells were collected from cynomolgus whole blood. In both human and cynomolgus samples, the Fc receptor on the tested monocytes was blocked and the monocytes were treated with Alexa Fluor 647-conjugated PILRA antibodies for 30 minutes on ice. A dose response curve of antibodies X0 (PA-29), X1, X2, X7, X11, X12, X13, X14, X16, X18, and X20 was tested for binding to cell surface PILRA in human and cynomolgus monocytes, and antibodies bound to PILRA in a dose response manner. In another sample of human donor monocytes, a dose response curve of antibodies X0 (PA-29), X1, X2, X11, X13, X18, X29 (PA-43), and X34 (A6) was tested for binding to cell surface PILRA in human and cynomolgus monocytes, and antibodies bound to PILRA in a dose response manner.

[10] = target: T2, human PILRA G78 on HEK293F cells; assay: flow cytometry blocking assay; antibody on HEK293F cells overexpressing human PILRA G78, then 5 ug/mL NPDC1 Fc as the blocked ligand; cell-bound NPDC1 Fc read as MFI
Procedure: A dose response curve of antibodies X0 (PA-29), X1, X2, X7, X11, X12, X13, X14, X16, X18, and X20 was assessed for modulating the binding of Neural Proliferation Differentiation and Control Protein 1 (NPDC1) Fc to 293 cells ectopically expressing human PILRA (HEK293F human PILRA G78 overexpressing cells). Conditioned media samples containing antibodies were incubated with human PILRA overexpressing cells for 30 minutes at 4° C., and then 5 μg/mL NPDC1 Fc was added to this mixture. After 30 minutes of incubation at 4° C., the cells were washed and cell-bound NPDC1 Fc was detected with anti-human IgG Alexa Fluor 647. The cells were analyzed by flow cytometry on FACS Canto II with the percentage of NPDC1 Fc binding in the presence of conditioned media relative to NPDC1 Fc binding alone was calculated. […] All tested antibodies decreased binding of NPDC1 to human PILRA.

T2 sequence (Q9UKJ1 20-303 R78G): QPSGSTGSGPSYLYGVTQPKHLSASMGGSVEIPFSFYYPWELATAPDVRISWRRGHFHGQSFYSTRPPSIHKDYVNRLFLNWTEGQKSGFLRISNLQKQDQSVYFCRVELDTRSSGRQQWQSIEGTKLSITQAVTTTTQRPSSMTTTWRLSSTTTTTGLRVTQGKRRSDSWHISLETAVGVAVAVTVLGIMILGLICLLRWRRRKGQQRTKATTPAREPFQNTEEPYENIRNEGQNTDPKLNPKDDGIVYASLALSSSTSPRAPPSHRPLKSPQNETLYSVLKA
T3 sequence (Q9UKJ1 20-303): as the sequence (Q9UKJ1 20-303 R78G) above, with G59R counted along it
T1 sequence (A0A7N9CRU1 entry or part of it): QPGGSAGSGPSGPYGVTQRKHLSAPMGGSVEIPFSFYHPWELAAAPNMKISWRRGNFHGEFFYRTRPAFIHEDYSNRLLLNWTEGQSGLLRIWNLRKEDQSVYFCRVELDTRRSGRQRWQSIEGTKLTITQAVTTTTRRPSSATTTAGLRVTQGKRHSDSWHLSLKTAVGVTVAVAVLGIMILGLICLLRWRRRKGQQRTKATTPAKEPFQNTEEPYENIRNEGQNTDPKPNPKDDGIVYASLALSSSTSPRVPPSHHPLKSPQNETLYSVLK
recombinant human PILRB, sequence (Q9UKJ0 20-191 limits assumed): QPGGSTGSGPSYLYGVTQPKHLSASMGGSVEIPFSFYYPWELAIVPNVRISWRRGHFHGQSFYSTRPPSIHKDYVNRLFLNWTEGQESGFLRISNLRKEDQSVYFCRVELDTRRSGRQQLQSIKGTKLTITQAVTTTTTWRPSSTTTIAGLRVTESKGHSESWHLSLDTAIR
recombinant human PILRA, sequence (Q9UKJ1 20-197 limits assumed): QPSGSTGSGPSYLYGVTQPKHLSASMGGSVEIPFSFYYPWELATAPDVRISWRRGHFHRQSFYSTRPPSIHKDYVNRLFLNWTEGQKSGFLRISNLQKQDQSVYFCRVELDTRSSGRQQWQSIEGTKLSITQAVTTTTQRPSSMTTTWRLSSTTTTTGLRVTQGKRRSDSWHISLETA

Kd [1]: 0.2 nM
Kd [2]: 9.1 nM
EC50 (read off the curve) [3]: ~0.5 µg/mL
Kd [4]: 0.2 nM
Kd [5]: 0.4 nM
Hu Mono DR EC50 [6]: ~0.0004 µg/mL
EC50 (read off the curve) [7]: ~0.3 µg/mL
hA/hB binding ratio on HEK293F [8]: 20.3
EC50 (read off the curve) [9]: ~0.2 µg/mL
IC50 (read off the curve) [10]: ~0.08 µg/mL
B1: X13 (antibody, human IgG4, V domains shown)
VH: QVQLVQSGAEVKKPGSSVKVSCKASGYNFLHYDVNWVRQAPGQGLEWMGGIIPIFGTANYAQKFQGRVTITADESTSTAYMELSSLRSEDTAVYYCATAVGAGWFDPWGQGTLVTVSS
VL: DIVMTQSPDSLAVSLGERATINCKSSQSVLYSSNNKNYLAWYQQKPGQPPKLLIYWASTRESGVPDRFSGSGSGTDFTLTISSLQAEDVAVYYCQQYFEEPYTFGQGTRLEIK
notes: conditioned media in the HEK293F assays
